Columns and labels:
Assay in all cases: holdup assay
Parameters in all cases: key: below the threshold = too weak to quantify, mostly under pKd 3.1 to 4
[1] = target: T1, LIN7A, O14910
T1 sequence (O14910 103-200, limits assumed, looked up): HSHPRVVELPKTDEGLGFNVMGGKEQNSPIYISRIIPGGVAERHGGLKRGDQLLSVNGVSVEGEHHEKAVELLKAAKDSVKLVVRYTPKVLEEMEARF

[2] = target: NOS1, P29475
[3] = target: T2, DFNB31_3, Q9P202
T2 sequence (Q9P202 811-907, limits assumed, looked up): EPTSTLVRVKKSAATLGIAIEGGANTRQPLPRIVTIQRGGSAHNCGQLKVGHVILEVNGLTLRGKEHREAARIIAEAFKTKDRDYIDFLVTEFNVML

[4] = target: T3, NHERF3_1, Q5T2W1
T3 sequence (Q5T2W1 4-100, limits assumed, looked up): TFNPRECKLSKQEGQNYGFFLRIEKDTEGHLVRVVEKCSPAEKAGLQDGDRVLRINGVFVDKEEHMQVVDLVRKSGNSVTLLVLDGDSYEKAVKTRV

[5] = target: IL16_4, Q14005
Sequence of IL16_4, Q14005 (Q14005 1229-1329): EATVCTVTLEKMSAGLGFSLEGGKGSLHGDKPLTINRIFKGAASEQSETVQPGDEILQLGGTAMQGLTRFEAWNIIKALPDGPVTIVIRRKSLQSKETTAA

[6] = target: MAGI1_1, Q96QZ7
Sequence of MAGI1_1, Q96QZ7 (Q96QZ7 1-106): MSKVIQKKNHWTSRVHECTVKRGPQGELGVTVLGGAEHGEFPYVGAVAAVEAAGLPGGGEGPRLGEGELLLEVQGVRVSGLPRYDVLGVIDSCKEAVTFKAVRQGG

[7] = target: T4, DLG3_2, Q92796
T4 sequence (Q92796 221-321, limits assumed, looked up): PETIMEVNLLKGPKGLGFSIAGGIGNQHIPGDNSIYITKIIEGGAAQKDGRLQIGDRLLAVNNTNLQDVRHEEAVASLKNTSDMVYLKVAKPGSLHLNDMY

[8] = target: FRMPD2_1, Q68DX3
Sequence of FRMPD2_1, Q68DX3 (Q68DX3 770-861): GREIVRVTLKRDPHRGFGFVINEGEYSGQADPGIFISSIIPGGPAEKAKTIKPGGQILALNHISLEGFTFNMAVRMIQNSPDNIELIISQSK

[9] = target: T5, PARD3B_1, Q8TEW8
T5 sequence (Q8TEW8 196-299, limits assumed, looked up): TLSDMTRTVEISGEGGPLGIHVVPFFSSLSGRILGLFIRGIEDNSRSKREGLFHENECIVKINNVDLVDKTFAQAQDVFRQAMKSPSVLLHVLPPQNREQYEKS

[10] = target: T6, RADIL, Q96JH8
T6 sequence (Q96JH8 971-1071, limits assumed, looked up): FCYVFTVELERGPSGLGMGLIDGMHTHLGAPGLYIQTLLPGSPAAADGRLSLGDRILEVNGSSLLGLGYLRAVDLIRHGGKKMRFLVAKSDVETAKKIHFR

[11] = target: FRMPD3, Q5JV73
Sequence of FRMPD3, Q5JV73 (Q5JV73 12-100): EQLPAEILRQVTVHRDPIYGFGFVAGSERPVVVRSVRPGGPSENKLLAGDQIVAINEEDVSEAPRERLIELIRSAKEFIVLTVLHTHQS

[12] = target: CASK, O14936
Sequence of CASK, O14936 (O14936 487-570): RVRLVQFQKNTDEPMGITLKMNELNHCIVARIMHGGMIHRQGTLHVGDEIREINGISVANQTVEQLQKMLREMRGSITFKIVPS

[13] = target: IL16_3, Q14005
Sequence of IL16_3, Q14005 (Q14005 1107-1207): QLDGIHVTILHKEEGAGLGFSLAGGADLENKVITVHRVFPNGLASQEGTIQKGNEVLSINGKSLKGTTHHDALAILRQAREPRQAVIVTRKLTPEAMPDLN

[14] = target: T7, TX1BP3, O14907
T7 sequence (O14907 10-122, limits assumed, looked up): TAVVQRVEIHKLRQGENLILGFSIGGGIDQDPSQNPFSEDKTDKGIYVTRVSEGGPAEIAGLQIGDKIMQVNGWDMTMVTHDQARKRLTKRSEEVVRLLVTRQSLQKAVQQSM

[15] = target: DLG2_3, Q15700
[16] = target: DLG5_1, Q8TDM6
Sequence of DLG5_1, Q8TDM6 (Q8TDM6 617-713): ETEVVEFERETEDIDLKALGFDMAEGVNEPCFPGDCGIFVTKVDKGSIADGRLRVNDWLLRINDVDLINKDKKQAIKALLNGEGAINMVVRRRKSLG

[17] = target: GRIP2_5, Q9C0E4
Sequence of GRIP2_5, Q9C0E4 (Q9C0E4 544-642): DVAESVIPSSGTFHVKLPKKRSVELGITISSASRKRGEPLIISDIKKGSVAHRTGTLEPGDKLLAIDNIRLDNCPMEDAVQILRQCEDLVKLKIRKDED

[18] = target: T8, SYNJ2BP, P57105
T8 sequence (P57105 8-110, limits assumed, looked up): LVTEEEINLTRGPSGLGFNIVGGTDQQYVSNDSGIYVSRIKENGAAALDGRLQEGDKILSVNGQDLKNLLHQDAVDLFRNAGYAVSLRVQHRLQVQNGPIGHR

[19] = target: T9, APBA3_1, O96018
T9 sequence (O96018 389-490, limits assumed, looked up): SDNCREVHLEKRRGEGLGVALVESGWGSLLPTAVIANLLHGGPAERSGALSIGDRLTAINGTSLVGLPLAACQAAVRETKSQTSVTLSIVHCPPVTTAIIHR

[20] = target: T10, TJP3_3, O95049
T10 sequence (O95049 375-456, limits assumed, looked up): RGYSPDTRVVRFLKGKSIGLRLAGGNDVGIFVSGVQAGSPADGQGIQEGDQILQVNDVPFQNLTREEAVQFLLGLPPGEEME

[21] = target: T11, SNTG1, Q9NSN8
T11 sequence (Q9NSN8 52-150, limits assumed, looked up): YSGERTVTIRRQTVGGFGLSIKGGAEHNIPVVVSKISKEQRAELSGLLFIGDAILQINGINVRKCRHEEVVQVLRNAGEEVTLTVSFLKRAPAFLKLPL

[22] = target: GORASP2, Q9H8Y8
[23] = target: FRMPD4, Q14CM0
Sequence of FRMPD4, Q14CM0 (Q14CM0 67-160): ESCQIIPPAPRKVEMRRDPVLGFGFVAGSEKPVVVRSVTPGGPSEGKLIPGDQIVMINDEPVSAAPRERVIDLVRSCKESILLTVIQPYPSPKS

[24] = target: MAGI2_6, Q86UL8
Sequence of MAGI2_6, Q86UL8 (Q86UL8 1141-1229): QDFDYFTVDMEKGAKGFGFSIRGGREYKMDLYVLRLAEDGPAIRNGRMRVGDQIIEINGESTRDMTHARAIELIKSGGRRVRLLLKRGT

[25] = target: MAGI2_3, Q86UL8
Sequence of MAGI2_3, Q86UL8 (Q86UL8 600-682): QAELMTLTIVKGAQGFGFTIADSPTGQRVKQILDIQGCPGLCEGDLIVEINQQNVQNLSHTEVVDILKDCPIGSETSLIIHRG

[26] = target: DLG2_2, Q15700
[27] = target: Inadl_9, Q8NI35
Sequence of Inadl_9, Q8NI35 (Q8NI35 1530-1615): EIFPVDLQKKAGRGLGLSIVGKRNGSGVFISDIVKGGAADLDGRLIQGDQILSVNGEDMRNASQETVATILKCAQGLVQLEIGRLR

[28] = plain residues with an end cap or a label only (N-terminal biotin on a linker: ado-ado)
[29] = plain residues with an end cap or a label only (N-terminal biotin on a linker: (peg)3)

Sequence of NOS1, P29475 (P29475 9-101): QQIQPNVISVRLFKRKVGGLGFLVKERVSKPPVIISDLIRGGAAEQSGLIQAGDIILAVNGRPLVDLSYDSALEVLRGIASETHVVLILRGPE

DFRHKSSFVI [JAM3, Q9BX67]
pKd [1, 28]: below the threshold | pKd [2, 28]: below the threshold | pKd [3, 28]: 3.86 | pKd [4, 28]: below the threshold | pKd [5, 28]: below the threshold | pKd [6, 28]: below the threshold | pKd [7, 28]: 4.16 | pKd [8, 28]: below the threshold | pKd [9, 28]: 5.03 | pKd [10, 28]: 3.96 | pKd [11, 28]: below the threshold | pKd [12, 28]: below the threshold | pKd [13, 28]: below the threshold | pKd [14, 28]: below the threshold | pKd [15, 28]: 3.52 | pKd [16, 28]: below the threshold | pKd [17, 28]: below the threshold | pKd [18, 28]: below the threshold | pKd [19, 28]: below the threshold | pKd [20, 28]: below the threshold | pKd [21, 28]: below the threshold | pKd [22, 28]: 5.21 | pKd [23, 28]: below the threshold | pKd [24, 28]: below the threshold | pKd [25, 28]: below the threshold | pKd [26, 28]: below the threshold | pKd [27, 28]: below the threshold

YDEPTTTTSVPL [SARS-Cov2-3a, P0DTC3]
pKd [1, 29]: below the threshold | pKd [2, 29]: below the threshold | pKd [3, 29]: below the threshold | pKd [4, 29]: 3.92 | pKd [5, 29]: below the threshold | pKd [6, 29]: below the threshold | pKd [7, 29]: below the threshold | pKd [8, 29]: below the threshold | pKd [9, 29]: 4.12 | pKd [10, 29]: below the threshold | pKd [11, 29]: below the threshold | pKd [12, 29]: below the threshold | pKd [13, 29]: below the threshold | pKd [14, 29]: below the threshold | pKd [15, 29]: below the threshold | pKd [16, 29]: below the threshold | pKd [17, 29]: below the threshold | pKd [18, 29]: below the threshold | pKd [19, 29]: below the threshold | pKd [20, 29]: below the threshold | pKd [21, 29]: below the threshold | pKd [22, 29]: below the threshold | pKd [23, 29]: 3.97 | pKd [24, 29]: below the threshold | pKd [25, 29]: below the threshold | pKd [26, 29]: below the threshold | pKd [27, 29]: below the threshold

RTQSSDSAYV [GJD2, Q9UKL4]
pKd [1, 28]: below the threshold | pKd [2, 28]: 3.95 | pKd [3, 28]: below the threshold | pKd [4, 28]: 4.95 | pKd [5, 28]: below the threshold | pKd [6, 28]: below the threshold | pKd [7, 28]: below the threshold | pKd [8, 28]: 3.66 | pKd [9, 28]: 4.63 | pKd [10, 28]: 4.43 | pKd [11, 28]: 3.65 | pKd [12, 28]: below the threshold | pKd [13, 28]: below the threshold | pKd [14, 28]: below the threshold | pKd [15, 28]: below the threshold | pKd [16, 28]: below the threshold | pKd [17, 28]: below the threshold | pKd [18, 28]: 3.66 | pKd [19, 28]: below the threshold | pKd [20, 28]: 3.71 | pKd [21, 28]: below the threshold | pKd [22, 28]: 3.78 | pKd [23, 28]: 3.86 | pKd [24, 28]: 3.58 | pKd [25, 28]: below the threshold | pKd [26, 28]: below the threshold | pKd [27, 28]: 3.85

RPGFASESKV [ADRB1, P08588]
pKd [1, 28]: below the threshold | pKd [2, 28]: 3.6 | pKd [3, 28]: below the threshold | pKd [4, 28]: 4.36 | pKd [5, 28]: below the threshold | pKd [6, 28]: below the threshold | pKd [7, 28]: 3.61 | pKd [8, 28]: below the threshold | pKd [9, 28]: below the threshold | pKd [10, 28]: below the threshold | pKd [11, 28]: below the threshold | pKd [12, 28]: below the threshold | pKd [13, 28]: below the threshold | pKd [14, 28]: 4.72 | pKd [15, 28]: 3.75 | pKd [16, 28]: below the threshold | pKd [17, 28]: below the threshold | pKd [18, 28]: 4.64 | pKd [19, 28]: below the threshold | pKd [20, 28]: below the threshold | pKd [21, 28]: 4.59 | pKd [22, 28]: below the threshold | pKd [23, 28]: below the threshold | pKd [24, 28]: below the threshold | pKd [25, 28]: below the threshold | pKd [26, 28]: 3.87 | pKd [27, 28]: 3.47

GQETPLNTFC [MAP7D2, Q96T17]
pKd [1, 28]: below the threshold | pKd [2, 28]: below the threshold | pKd [3, 28]: below the threshold | pKd [4, 28]: 4.26 | pKd [5, 28]: below the threshold | pKd [6, 28]: below the threshold | pKd [7, 28]: 3.93 | pKd [8, 28]: below the threshold | pKd [9, 28]: below the threshold | pKd [10, 28]: below the threshold | pKd [11, 28]: below the threshold | pKd [12, 28]: below the threshold | pKd [13, 28]: below the threshold | pKd [14, 28]: 4.04 | pKd [15, 28]: below the threshold | pKd [16, 28]: below the threshold | pKd [17, 28]: below the threshold | pKd [18, 28]: below the threshold | pKd [19, 28]: below the threshold | pKd [20, 28]: below the threshold | pKd [21, 28]: below the threshold | pKd [22, 28]: below the threshold | pKd [23, 28]: below the threshold | pKd [24, 28]: below the threshold | pKd [25, 28]: below the threshold | pKd [26, 28]: below the threshold | pKd [27, 28]: below the threshold

— PMC9482650, “Quantitative fragmentomics allow affinity mapping of interactomes” (Nature Communications, 2022)
